Results from PMC5059739, “A distinct holoenzyme organization for two-subunit pyruvate carboxylase” (Nature Communications, 2016).

Tests used:
[1] = molecular target: T1, SaPC (single-chain pyruvate carboxylase) (Staphylococcus aureus, UniProt A0A0H3JRU9); assay: malate dehydrogenase-coupled PC activity with and without acetyl-CoA; format: biochemical; settings: allosteric activator
T1 construct: gene pycA; single-chain homo-tetramer, ~570 kDa by AUC; expression not described here
T1 sequence (A0A0H3JRU9 1-1150): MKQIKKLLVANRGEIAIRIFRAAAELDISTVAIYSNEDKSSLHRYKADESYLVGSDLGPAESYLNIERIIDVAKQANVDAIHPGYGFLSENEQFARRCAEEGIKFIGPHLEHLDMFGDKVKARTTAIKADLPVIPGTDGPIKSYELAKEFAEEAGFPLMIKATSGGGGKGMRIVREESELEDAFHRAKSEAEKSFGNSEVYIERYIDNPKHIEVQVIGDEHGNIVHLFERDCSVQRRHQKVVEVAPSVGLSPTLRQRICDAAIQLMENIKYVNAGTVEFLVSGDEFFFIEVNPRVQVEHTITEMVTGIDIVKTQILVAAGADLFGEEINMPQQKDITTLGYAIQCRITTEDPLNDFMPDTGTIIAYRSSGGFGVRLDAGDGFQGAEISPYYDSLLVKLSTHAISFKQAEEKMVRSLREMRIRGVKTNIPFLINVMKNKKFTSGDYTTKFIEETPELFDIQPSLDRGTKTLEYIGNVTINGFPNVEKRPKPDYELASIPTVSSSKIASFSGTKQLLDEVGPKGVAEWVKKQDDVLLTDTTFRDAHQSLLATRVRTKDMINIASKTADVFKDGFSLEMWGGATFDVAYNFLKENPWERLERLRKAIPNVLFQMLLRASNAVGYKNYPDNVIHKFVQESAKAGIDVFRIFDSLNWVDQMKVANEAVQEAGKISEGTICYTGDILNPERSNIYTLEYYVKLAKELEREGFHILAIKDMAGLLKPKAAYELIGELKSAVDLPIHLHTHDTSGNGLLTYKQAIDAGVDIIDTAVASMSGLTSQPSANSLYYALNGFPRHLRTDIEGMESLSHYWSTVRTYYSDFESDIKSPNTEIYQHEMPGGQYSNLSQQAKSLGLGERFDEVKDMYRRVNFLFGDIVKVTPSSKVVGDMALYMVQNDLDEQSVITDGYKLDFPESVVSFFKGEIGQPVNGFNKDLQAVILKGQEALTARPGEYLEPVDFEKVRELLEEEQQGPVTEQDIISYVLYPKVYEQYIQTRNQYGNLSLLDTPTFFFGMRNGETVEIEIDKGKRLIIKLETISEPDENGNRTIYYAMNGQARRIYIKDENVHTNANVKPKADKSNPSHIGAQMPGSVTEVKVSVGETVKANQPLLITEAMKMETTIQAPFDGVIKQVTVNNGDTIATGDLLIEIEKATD

[2] = molecular target: Methylobacillus flagellatus pyruvate carboxylase (MfPC) α subunit, N-terminal hexa-histidine tag, co-expressed with the β subunit (Methylobacillus flagellatus); assay: SEC; gel filtration of two-subunit PCs purified from E. coli co-expression, with Coomassie-stained SDS-PAGE of the purified complexes and of known amounts of α and β subunits; also with an extra plasmid expressing only α
[3] = molecular target: MfPC β subunit K581A mutant, purified alone (Methylobacillus flagellatus)
[4] = molecular target: MfPC α subunit expressed and purified alone (pET28a, N-terminal hexa-histidine tag) (Methylobacillus flagellatus); assay: SEC; analytical gel filtration of separately purified MfPC α and β subunits, alone and mixed in 1:2, 1:1 or 2:1 molar ratios; peak fractions on SDS-PAGE
[5] = molecular target: MfPC β subunit with the surface entropy reduction mutations K419A, E421A and E422A, untagged (Methylobacillus flagellatus); assay: crystal structure; mutant MfPC (B domain deletion in α; K419A, E421A, E422A in β), 3.0 Å, space group R32, one α2β4 oligomer in the asymmetric unit; sitting drop, 20 °C, 2.5 mM pyruvate, 19% PEG3350, 2% tacsimate pH 6.0, 3% ethanol
[6] = molecular target: MfPC α subunit with the B sub-domain of BC (residues 131–201) replaced by a Gly–Ser–Ser–Gly linker (Methylobacillus flagellatus); assay: as above
[7] = molecular target: MfPC β subunit with the surface entropy reduction mutations K419A, E421A and E422A, untagged (Methylobacillus flagellatus); assay: crystal structure; 'wild-type' MfPC (K419A, E421A, E422A in β), 6.6 Å, space group P3(1)21, one α and two β in the asymmetric unit, α2β4 by a crystallographic two-fold axis; 2.5 mM ATP and 2.5 mM pyruvate, 1.3 M ammonium sulfate, 0.1 M sodium citrate pH 6.0
[8] = molecular target: Methylobacillus flagellatus pyruvate carboxylase (MfPC) α subunit, N-terminal hexa-histidine tag, co-expressed with the β subunit (Methylobacillus flagellatus); assay: as above
[9] = molecular target: Pseudomonas aeruginosa pyruvate carboxylase (PaPC) α subunit (Pseudomonas aeruginosa); assay: AUC; sedimentation velocity, 0.5 mg/ml, 20 °C, 42,000 r.p.m., 20 mM Tris pH 8.0, 150 mM NaCl, continuous c(s) distribution (SEDFIT)
[10] = molecular target: the molecule itself; assay: as above

## CC(=O)SCCNC(=O)CCNC(=O)[C@H](O)C(C)(C)COP(=O)(O)OP(=O)(O)OC[C@H]1O[C@@H](n2cnc3c(N)ncnc32)[C@H](O)[C@@H]1OP(=O)(O)O [acetyl-CoA]
[1]
  activation: When acetyl-CoA is present, SaPC activity becomes comparable to those of the two-subunit PCs

## Methylobacillus flagellatus pyruvate carboxylase (MfPC) β subunit, untagged, co-expressed with the α subunit (enzyme)
[2]
  stoichiometry N: 2 β per α

## MfPC β subunit A49T mutant, purified alone (enzyme)
[3]
  pyruvate carboxylase activity of hybrid holoenzymes (A49T and K581A β subunits mixed in a 1:1 ratio, then α subunit added), against the wild-type holoenzyme (% of wild-type activity): 29

## MfPC β subunit expressed and purified alone (pET28a, N-terminal hexa-histidine tag) (enzyme)
[4]
  stoichiometry N: 2 β per α

## MfPC β subunit with the surface entropy reduction mutations K419A, E421A and E422A, untagged (enzyme)
[5]
  stoichiometry N: 2
[6]
  stoichiometry N: 2 β per α
[7]
  stoichiometry N: 2
[8]
  stoichiometry N: 2 β per α

## Pseudomonas aeruginosa pyruvate carboxylase (PaPC) β subunit (enzyme)
[9]
  stoichiometry N: 2 β per α

B1: Staphylococcus aureus pyruvate carboxylase (SaPC), single-chain (enzyme, UniProt A0A0H3JRU9 1-1150, looked up)
chain: T1 sequence (A0A0H3JRU9 1-1150)
notes: single-chain pyruvate carboxylase, Staphylococcus aureus; Used as a control in the ultracentrifugation
[10]
  stoichiometry N: 4
